Among the data in article PMC5352143 are Kd and stoichiometry N values, retold here.

Where “and” joins values, the source holds several entries; their conditions need not be identical. Equal values may be shown once. Read-outs that look alike come from different tables or passages of the source.

Assay [1] deals with transferrin (Homo sapiens) (UniProt P02787). The note with it: cited from earlier work.
Assay [2] deals with LbpB (N. meningitidis MC58, without amino acids 1-15) after TEV cleavage of MBP-LbpB (Neisseria meningitidis strain MC58). Briefly: cross-linking; XL-MS: LbpB (MBP fusion or TEV-cleaved) and hLf equimolar in 50 mM Tris-HCl, 50 mM NaCl, pH 7.4, 4 h RT, DSS 30 min, bands cut from SDS-PAGE, LC-MS/MS.
For assay [3], the target named is MBP-LbpB (lactoferrin binding protein B, N. meningitidis MC58, without amino acids 1-15) (Neisseria meningitidis strain MC58). Described as above.
For assay [4] the target is unchanged. The assay is described as above. The source holds these as a separate data set.
For assay [5], the target named is LbpB N-terminal lobe with N-terminal biotin acceptor peptide, fused to MBP (BLI construct) (Neisseria meningitidis strain MC58). The assay is described as follows: BLI; Octet RED 96; biotinylated MBP-LbpB constructs loaded from crude E. coli extracts on streptavidin sensors; holo-hLf 10-800 nM in 1 X PBS pH 7.4, 0.002% Tween-20, 0.1 mg/mL BSA; steady-state fit, apparent KD.

Assay [6] deals with LbpB with the anionic loops removed (LbpB-lgsm), N-terminal biotin acceptor peptide, fused to MBP (BLI construct) (Neisseria meningitidis strain MC58). The assay is described as above.
Assay [7] deals with intact LbpB with N-terminal biotin acceptor peptide, fused to MBP (BLI construct) (Neisseria meningitidis strain MC58). The assay is described as above.

Chain of transferrin (Homo sapiens) (P02787 20-698): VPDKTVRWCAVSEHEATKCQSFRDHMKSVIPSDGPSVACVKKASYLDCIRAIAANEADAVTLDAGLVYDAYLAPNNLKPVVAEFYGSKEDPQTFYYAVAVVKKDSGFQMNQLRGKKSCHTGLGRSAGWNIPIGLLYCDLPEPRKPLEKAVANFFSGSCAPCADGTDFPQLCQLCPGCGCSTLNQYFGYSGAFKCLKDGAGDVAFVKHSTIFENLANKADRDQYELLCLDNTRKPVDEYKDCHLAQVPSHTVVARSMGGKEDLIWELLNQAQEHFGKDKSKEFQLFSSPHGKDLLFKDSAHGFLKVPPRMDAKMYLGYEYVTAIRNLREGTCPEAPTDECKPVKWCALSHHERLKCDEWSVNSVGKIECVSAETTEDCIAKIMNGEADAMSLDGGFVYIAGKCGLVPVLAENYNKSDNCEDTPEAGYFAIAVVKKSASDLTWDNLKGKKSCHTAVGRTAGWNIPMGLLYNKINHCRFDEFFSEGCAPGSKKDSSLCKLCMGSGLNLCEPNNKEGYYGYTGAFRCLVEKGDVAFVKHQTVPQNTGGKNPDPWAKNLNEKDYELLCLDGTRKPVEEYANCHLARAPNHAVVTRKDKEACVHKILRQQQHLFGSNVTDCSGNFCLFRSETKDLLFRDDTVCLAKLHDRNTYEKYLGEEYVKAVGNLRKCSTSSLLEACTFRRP

For TbpB (from UniProt Q09057), the Kd in assay [1] is 0.05 µM.
With “holo human lactoferrin (iron-loaded hLf) (ligand)”, the stoichiometry N in assay [2] was 1 hLf:LbpB and 2 hLf:LbpB; in assay [3], 1 hLf:LbpB; in assay [4] it was 2 hLf:LbpB. Further, the Kd in assay [5] came to 0.126 µM; in assay [6] it was 0.14 µM; in assay [7], 0.0728 µM.

What is called stoichiometry N is a count of units in the complex or per binding partner.
